Data reported in patent publication US20060294608A1.

Target: CHO derived N' FLAG-mNR6 (N-terminal FLAG-tagged murine NR6) (mouse) (UniProt Q9JM58)
Assay: Biosensor (BiaCore) with M2 immobilised, after passage over M2 affinity resin

UniProt Q9JM58, sequence (Q9JM58 other isoform, or with tags, fused parts or gaps limits assumed): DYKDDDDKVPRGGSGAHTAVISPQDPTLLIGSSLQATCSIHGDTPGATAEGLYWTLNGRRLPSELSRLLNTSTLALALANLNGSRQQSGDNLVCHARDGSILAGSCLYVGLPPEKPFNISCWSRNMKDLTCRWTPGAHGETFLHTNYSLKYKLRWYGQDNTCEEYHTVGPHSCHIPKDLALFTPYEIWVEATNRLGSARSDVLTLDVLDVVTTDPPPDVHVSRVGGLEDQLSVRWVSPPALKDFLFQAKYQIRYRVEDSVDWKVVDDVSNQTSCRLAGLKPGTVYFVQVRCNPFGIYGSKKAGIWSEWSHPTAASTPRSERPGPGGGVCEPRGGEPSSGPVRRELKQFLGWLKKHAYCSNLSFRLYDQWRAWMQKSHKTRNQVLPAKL

anti FLAG peptide M2 antibody (Kodak Eastman, USA)
M2 binding remaining in the unbound fraction: 20%
